Patent US20240002497A1 (Merck Sharp & Dohme, published 2024)
Substitutions are numbered along the chain they refer to. Names and notes keep the numbering of the source. Read-outs that look alike come from different tables or passages of the source. Values belong to the binder of their own block, whether it stands above or below them.

What was measured:
[1] = biological target: T1, huNav1.7α+β1 (human, UniProt Q15858 1-1988; Q07699 19-218); assay: binding FACS, HEK293 cells
T1 construct: also called huNav1.7-beta1; HEKa/β1
In short: (§1)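 Purified FLAG3-tagged ISVDs incubated with cells (1×10^5 cells/well) in PBS/10% FBS/NaN₃ for 30 minutes at 4° C. Bound ISVD detected via murine anti-Flag by flow cytometry; dead cells excluded with 1 μg/mL propidium iodide. Crude periplasmic extracts were also screened for huNav1.7α binding without huNav1.5a binding.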

[2] = biological target: T2, huNav1.3α (human, UniProt Q9NY46 1-2000); assay: binding FACS on stable cell lines
T2 construct: also called huNav1.3 (alpha subunit)

[3] = biological target: T3, huNav1.4α (human, UniProt P35499 1-1836); assay: binding FACS on stable cell lines
T3 construct: also called huNav1.4 (alpha subunit)
T3 sequence (P35499 whole entry): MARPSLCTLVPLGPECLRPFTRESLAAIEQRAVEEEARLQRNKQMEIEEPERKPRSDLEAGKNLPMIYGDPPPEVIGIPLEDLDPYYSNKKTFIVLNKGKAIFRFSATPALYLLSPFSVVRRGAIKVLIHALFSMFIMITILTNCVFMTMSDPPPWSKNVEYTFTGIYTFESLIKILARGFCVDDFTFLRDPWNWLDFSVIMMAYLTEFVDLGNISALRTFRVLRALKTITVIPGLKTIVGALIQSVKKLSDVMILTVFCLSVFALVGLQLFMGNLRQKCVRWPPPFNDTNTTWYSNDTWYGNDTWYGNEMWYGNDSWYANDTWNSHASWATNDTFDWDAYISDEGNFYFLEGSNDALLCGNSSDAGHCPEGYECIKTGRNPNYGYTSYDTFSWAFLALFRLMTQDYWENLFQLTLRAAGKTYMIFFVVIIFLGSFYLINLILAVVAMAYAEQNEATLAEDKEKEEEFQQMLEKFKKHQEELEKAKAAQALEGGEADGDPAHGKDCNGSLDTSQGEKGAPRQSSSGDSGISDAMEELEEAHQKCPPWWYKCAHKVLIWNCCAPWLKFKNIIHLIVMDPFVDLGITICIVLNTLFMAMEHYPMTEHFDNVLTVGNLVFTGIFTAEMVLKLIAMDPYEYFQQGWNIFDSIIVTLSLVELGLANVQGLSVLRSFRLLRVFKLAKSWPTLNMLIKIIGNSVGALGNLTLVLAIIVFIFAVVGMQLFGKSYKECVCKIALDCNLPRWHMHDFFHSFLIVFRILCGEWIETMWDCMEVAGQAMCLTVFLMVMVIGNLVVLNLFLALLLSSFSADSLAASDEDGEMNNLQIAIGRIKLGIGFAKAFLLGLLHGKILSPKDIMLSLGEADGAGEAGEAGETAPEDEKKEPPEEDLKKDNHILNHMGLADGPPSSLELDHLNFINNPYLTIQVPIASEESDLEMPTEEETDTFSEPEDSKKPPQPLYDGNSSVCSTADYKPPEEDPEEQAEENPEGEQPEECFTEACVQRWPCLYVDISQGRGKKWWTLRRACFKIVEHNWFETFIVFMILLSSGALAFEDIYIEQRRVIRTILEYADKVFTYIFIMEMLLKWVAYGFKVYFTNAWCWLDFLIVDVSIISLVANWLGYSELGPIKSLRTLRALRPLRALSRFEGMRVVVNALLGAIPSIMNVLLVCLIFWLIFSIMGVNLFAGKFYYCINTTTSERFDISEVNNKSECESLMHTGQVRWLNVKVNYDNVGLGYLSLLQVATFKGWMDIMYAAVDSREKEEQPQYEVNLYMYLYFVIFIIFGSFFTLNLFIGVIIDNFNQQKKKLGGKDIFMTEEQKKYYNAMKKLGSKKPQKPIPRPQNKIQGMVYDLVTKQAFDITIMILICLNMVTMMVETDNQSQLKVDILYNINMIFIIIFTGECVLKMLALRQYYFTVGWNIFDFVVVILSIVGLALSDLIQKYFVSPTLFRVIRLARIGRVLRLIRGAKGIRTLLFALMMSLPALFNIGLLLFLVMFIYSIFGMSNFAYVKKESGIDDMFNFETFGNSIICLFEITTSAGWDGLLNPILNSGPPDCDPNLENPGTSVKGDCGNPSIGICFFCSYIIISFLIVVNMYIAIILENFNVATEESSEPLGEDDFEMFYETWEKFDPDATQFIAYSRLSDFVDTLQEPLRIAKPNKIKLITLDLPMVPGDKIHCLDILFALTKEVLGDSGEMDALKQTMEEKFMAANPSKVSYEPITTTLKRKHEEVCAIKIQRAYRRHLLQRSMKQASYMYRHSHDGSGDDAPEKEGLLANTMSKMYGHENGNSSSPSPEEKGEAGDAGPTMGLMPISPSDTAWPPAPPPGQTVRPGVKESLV

[4] = biological target: T4, huNav1.6α (human, UniProt Q9UQD0 1-1980); assay: binding FACS on stable cell lines
T4 construct: also called huNav1.6 (alpha subunit)
T4 sequence (Q9UQD0 whole entry): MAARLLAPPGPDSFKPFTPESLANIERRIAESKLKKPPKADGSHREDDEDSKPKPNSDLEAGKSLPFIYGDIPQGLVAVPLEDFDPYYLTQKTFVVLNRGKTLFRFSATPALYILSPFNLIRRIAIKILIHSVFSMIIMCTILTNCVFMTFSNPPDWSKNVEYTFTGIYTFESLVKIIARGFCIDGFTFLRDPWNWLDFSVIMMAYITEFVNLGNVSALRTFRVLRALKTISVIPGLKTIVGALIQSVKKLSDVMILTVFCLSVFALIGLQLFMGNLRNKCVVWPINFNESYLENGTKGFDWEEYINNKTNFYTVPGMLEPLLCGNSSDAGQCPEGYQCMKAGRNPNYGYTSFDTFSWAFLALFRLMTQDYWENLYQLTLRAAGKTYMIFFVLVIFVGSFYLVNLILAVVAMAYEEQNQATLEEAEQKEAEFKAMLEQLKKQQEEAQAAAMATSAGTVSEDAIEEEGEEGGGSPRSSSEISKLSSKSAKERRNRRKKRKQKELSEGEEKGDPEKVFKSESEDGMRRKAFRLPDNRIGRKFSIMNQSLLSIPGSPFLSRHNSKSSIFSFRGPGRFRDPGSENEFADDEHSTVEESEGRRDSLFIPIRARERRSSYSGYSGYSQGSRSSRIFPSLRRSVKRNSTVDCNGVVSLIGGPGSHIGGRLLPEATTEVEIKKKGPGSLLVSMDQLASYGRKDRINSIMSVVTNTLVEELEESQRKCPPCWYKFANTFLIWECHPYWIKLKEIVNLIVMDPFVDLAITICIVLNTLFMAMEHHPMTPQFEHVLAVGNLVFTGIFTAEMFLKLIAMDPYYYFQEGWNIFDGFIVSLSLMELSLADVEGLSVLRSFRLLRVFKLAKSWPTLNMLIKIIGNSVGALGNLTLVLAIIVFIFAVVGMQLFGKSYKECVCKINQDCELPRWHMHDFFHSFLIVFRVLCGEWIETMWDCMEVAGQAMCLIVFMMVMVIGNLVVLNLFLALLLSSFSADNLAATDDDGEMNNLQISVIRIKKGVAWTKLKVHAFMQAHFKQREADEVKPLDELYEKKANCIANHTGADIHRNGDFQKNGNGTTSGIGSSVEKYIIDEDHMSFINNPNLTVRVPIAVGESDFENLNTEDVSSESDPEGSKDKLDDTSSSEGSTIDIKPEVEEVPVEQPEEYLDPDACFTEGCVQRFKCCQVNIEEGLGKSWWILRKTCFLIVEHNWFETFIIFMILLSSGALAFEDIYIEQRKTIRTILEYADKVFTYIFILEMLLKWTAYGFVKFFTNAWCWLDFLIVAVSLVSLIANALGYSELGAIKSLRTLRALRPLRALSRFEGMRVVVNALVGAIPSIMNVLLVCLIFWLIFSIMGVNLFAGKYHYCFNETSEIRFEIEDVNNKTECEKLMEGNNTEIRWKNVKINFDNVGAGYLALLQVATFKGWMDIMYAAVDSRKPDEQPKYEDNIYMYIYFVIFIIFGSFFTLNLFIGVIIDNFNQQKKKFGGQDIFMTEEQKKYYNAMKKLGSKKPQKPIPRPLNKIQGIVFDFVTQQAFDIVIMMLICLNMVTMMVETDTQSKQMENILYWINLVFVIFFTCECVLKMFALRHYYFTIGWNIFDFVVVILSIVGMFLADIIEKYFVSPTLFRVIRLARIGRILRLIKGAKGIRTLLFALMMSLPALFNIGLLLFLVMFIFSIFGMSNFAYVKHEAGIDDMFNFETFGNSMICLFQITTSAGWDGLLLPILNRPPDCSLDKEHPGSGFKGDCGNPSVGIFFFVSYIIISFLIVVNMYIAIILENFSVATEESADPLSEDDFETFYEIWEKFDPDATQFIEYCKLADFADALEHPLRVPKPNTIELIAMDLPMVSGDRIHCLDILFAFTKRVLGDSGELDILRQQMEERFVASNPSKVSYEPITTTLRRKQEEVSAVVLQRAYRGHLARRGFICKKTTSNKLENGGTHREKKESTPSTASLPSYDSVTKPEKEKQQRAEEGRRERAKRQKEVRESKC

[5] = biological target: T5, huNav1.8α (human, UniProt Q9Y5Y9 1-1956); assay: binding FACS on stable cell lines
T5 construct: also called huNav1.8 (alpha subunit)

[6] = biological target: huNav1.1α (human, UniProt P35498 1-2009); assay: binding FACS on stable cell lines
[7] = biological target: T6, huNav1.2α (human, UniProt Q99250 1-2005); assay: binding FACS on stable cell lines
T6 construct: also called huNav1.2 (alpha subunit)

[8] = biological target: T7, huNav1.7α+β1-β2-β3 (human, UniProt Q15858 1-1988; Q07699 19-218; O60939 30-215; Q9NY72 23-215); assay: binding FACS, CHO FlpIn cells
T7 construct: 5N11S variant; also called huNav1.7-beta1-beta2-beta3; huNav1.7α+Navβ1-Navβ2-Navβ3
In short: as §1

[9] = biological target: T8, rhNav1.7α+β1-β2-β3 (rhesus monkey α subunit with human β …); assay: binding FACS, CHO FlpIn cells
T8 construct: P2A cleaves it into α, β1, β2, β3; also called rhNav1.7-beta1-beta2-beta3
In short: as §1

[10] = biological target: T7, huNav1.7α+β1-β2-β3; assay: binding FACS, HEK FlpIn cells
In short: as §1

[11] = biological target: T9, huNav157chimera14+β1-β2-β3 (human, UniProt Q07699 19-218; O60939 30-215; Q9NY72 23-215); assay: binding FACS, HEK FlpIn cells
T9 construct: HEK FlpIn line; also called huNav157 chimera 14-beta1-beta2-beta3; Nav157ch14-β1-β2-β3
In short: as §1

[12] = biological target: T10, huNav1.5α+β1-β2-β3 (human, UniProt Q14524 1-2016; A5A6L6 19-218; O60939 30-215; Q2KI11 23-215); assay: binding FACS, HEK FlpIn cells
T10 construct: in the cell P2A cleaves it into α, β1, β2, β3; also called huNav1.5-beta1-beta2-beta3
In short: as §1

[13] = biological target: T11, huNav1.7(N146S, V194I, F276V, R277Q, E281V, V331M, E504D, D507E, S508N, N533S)-β1-β2-β3 (human, UniProt Q15858 1-1988; Q07699 19-218; O60939 30-215; Q9NY72 23-215); assay: FACS on transiently transfected HEK293T cells
T11 construct: Transiently on HEK293T cells; The text prints V1941 for V194I; also called chimeric variant of huNav1.7α with all DI huNav1.7α-rhNav1.7α polymorphisms
Experimental: (§2) Binding of the ISVDs to cell-expressed Nav1.7α was detected via murine anti-Flag (Sigma, catalog #F1804). Briefly, cells were resuspended in FACS buffer (PBS, 10% FBS, NaN₃) and transferred to a 96-well V-bottom plate at 1×10^5 cells/well. Purified FLAG3-tagged ISVD was diluted in FACS buffer and added to the cells for 30 minutes at 4° C. […] Prior to the read-out, the samples were resuspended in 1 μg/mL propidium iodide (Sigma, catalog #P4170) to exclude dead cells. Between each step, the cells were centrifuged for 5 minutes at 200 grams and washed with 100 μL/well FACS buffer.
FACS binding studies (as described above) were performed on HEK293T cells transiently transfected with a chimeric variant of huNav1.7α in which all the huNav1.7α-rhNav1.7α polymorphisms of DI are present (N146S, V1941, F276V, R277Q, E281V, V331M, E504D, D507E, S508N, N533S). Replacing the huNav1.7α DI sequence for that of rhNav1.7α is sufficient to abolish the binding of F0103262CO2, F0103265B04, F0103262B06, and F0103265A11 to huNav1.7α, recapitulating the absence of binding on rhNav1.7α (see FIGS. 21A-21B).

[14] = biological target: T12, huNav1.7α (human Nav1.7 alpha subunit, expressed without β subunits) (human, UniProt Q15858 1-1988); assay: binding FACS, HEKa cells
T12 construct: also called HEK293 human Nav1.7α; HEKa Nav1.7α

[15] = biological target: T12, huNav1.7α (human Nav1.7 alpha subunit, …); assay: binding FACS, HEKa cells; remark: listed apart in the source
[16] = biological target: T13, huNav1.7α + β1 (human Nav1.7α co-expressed with Navβ1) (human, UniProt Q15858 1-1988; Q07699 19-218); assay: binding FACS, HEKa/β1 cells
T13 construct: also called HEK293 human Nav1.7α + β1; HEKa/β1 Nav1.7α

[17] = biological target: T13, huNav1.7α + β1 (human Nav1.7α …); assay: binding FACS, HEKa/β1 cells; remark: listed apart in the source
[18] = biological target: T14, huNav1.7α + β1-β2-β3 (human Nav1.7α co-expressed with Navβ1, Navβ2 and Navβ3) (human); assay: binding FACS, HEK FlpIn cells
T14 construct: also called huNav1.7-beta1-beta2-beta3

[19] = biological target: T15, huNav157 chimera 14 + β1-β2-β3 (human); assay: binding FACS, HEK FlpIn cells
T15 construct: Chimera of huNav1.7α (extracellular loops and transmembrane helices) and huNav1.5α (intracellular loops); also called Nav157ch14-β1-β2-β3; huNav157 chimera 14-beta1-beta2-beta3

[20] = biological target: T16, huNav157 chimera 14 (human); assay: binding FACS, HEK FlpIn cells
T16 construct: Chimera without β subunits; also called Nav157ch14

[21] = biological target: T15, huNav157 chimera 14 + β1-β2-β3; assay: binding FACS, HEK FlpIn cells; remark: listed apart in the source
[22] = biological target: T16, huNav157 chimera 14; assay: binding FACS, HEK FlpIn cells; remark: listed apart in the source
[23] = biological target: T12, huNav1.7α (human Nav1.7 alpha subunit, …); assay: binding FACS, huNav1.7α without β; minus = weaker than reference
[24] = biological target: T9, huNav157chimera14+β1-β2-β3; assay: binding FACS with purified FLAG3-HIS6 tagged ISVDs
Experimental: as §2
Crude periplasmic extracts containing ISVDs from phage display selections (as described above) were screened in FACS for binding to huNav1.7α but not to huNav1.5a. […] As used in Table 8, the drawings, and throughout the description, Navβ1, Navβ2, and Navβ3 are human homologs unless specifically identified otherwise.

[25] = biological target: T17, huNav1.7α (human, UniProt Q15858 1-1988); assay: binding FACS, HEKa cells
T17 construct: HEK cells expressing the α subunit alone; also called HEKa; HEK huNav1.7α
In short: (§3)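 Cells are first suspended in FACS buffer at 1×10^5 per well. Next, FLAG3-tagged ISVD is added for 30 minutes at 4° C, and binding is then detected with murine anti-Flag. Finally, samples go into 1 μg/mL propidium iodide before flow cytometry.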

[26] = biological target: T1, huNav1.7α+β1; assay: binding FACS, HEKa/β1 cells
In short: as §3

[27] = biological target: T7, huNav1.7α+β1-β2-β3; assay: binding FACS, HEK FlpIn cells; remark: listed apart in the source

EC50 [1]: 20 nM
binding result [2]: no binding
binding result [3]: no binding
binding result [4]: no binding
binding result [5]: no binding
binding result [6]: no binding
binding result [7]: no binding
EC50 [8]: 19 nM
binding result [9]: no binding
EC50 [10]: 25 nM
EC50 [11]: 16 nM
binding result [13]: no binding (tested: 1 µM)
B1: F0103262B06 (parental)-FLAG-HIS6 (VHH)
VHH: EVQLVESGGGLVQPGGSLRLSCAGSTRTFSTYAMGWFRQAPGREREFVAHINFSGSSTRYADSVKGRFTISRDNAKNMGYLQMNSLKPEDTAVYYCAARWVAGPPRYDYEYWGQGTLVTVSS
binding result [12]: no binding

Bmax [14]: 100%
EC50 [14]: 3.1 nM
EC50 [15]: 3.1 nM
EC50 [16]: 1.9 nM
EC50 [17]: 1.9 nM
EC50 [18]: 2.7 nM
EC50 [19]: 3.6 nM
Bmax [20]: 100%
EC50 [20]: 2.8 nM
EC50 [21]: 3.6 nM
EC50 [22]: 2.8 nM
B2: F0103387G05 (parental)-FLAG-HIS6 (VHH)
VHH: EVQLVESGGGLVQAGGSLRLSCDASGRILRIGYMRWHRQGAGKQREFVARITDDSATDYADSVKGRFTISRDNAKNTVYLQMNNLNPEDTAVYYCEALVTASVRGGSIHSGTYWGRGTLVTVSS

Bmax [14]: 75%
EC50 [14]: 8 nM
EC50 [16]: 4 nM
EC50 [19]: 4.7 nM
Bmax [20]: 80%
EC50 [20]: 12 nM
EC50 fold change compared to reference [23]: -2 fold
B3: F010301647 (VHH)
VHH: B2 VHH with L11V, A14P, F47L, N84S, N86R, V92L, R116Q
notes: also called F0103387G05(L11V, A14P, F47L, N82bS, N83R, V89L, R105Q); F47L

EC50 [1]: 59 nM
binding result [2]: no binding
binding result [3]: no binding
binding result [4]: no binding
binding result [5]: no binding
binding result [6]: no binding
binding result [7]: no binding
EC50 [8]: 110 nM
binding result [9]: no binding
EC50 [10]: 42 nM
binding result [24]: binds
B4: F0103362B08 (parental)-FLAG-HIS6 (VHH)
VHH: EVQLVESGGGLVQAGGSLRLSCAASVRPFSTSAMGWFRQAPEKEREAVAGILWNGIVTYYADSVKGRFTISRDNAKNEVYLQMNKLKPEDTAVYYCALDRDYGGRSFSAYEYEYWGQGTLVTVSS
binding result [12]: no binding

binding result [25]: no binding
EC50 [1]: 8.4 nM
Bmax relative to '535 [26]: 34%
EC50 [26]: 11 nM
binding result [2]: no binding
binding result [3]: no binding
binding result [4]: no binding
binding result [5]: no binding
binding result [6]: no binding
binding result [7]: no binding
EC50 [8]: 66 nM
binding result [9]: no binding
EC50 [10]: 37 nM
EC50 [11]: 34 nM
EC50 [27]: 77 nM
binding result [13]: no binding (tested: 1 µM)
B5: F0103265A11 (parental)-FLAG-HIS6 (VHH)
VHH: EVQLVESGGGLVQPGGSLRLSCAASGMLFNANTQGWYRQAPGKQRELVAFIFSGGYTNYVDSVKGRFTISRDNAKRTMYLQMNSLKPEDSAIYYCSLSRYLGQGTLVTVSS
notes: also called F01033265A11
binding result [12]: no binding
